For assay [1], the target named is T1, recombinant human AXL extracellular domain, C-terminally His8-tagged (rhAXL-ECD) (human, UniProt P30530 26-451).
T1 construct: Made in CHO cells; also called (rh)AXL-ECD His8; human AXL ECD
T1 sequence: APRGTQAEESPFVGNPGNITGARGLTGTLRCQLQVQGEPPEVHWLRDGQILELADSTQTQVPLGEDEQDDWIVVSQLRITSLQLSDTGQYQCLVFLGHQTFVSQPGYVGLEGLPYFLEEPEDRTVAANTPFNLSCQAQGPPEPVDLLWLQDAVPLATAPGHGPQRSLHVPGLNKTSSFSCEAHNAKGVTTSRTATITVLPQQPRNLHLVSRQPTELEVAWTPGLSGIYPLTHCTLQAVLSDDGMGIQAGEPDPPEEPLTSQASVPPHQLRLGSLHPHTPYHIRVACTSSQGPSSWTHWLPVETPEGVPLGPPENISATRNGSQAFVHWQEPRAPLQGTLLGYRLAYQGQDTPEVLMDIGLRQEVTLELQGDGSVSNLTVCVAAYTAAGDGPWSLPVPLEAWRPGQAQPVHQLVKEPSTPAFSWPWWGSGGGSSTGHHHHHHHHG
Put plainly: SPR Biacore T200, mAb captured on anti-Fc, AXL ECD flowed, multi-cycle kinetics. The protocol:
(§1) Surface plasmon resonance. For murine mAbs, binding to human and cynomolgus AXL ECD was assessed using a Biacore T200 instrument. Briefly, either anti-mouse or anti-human Fc antibody was immobilized on a research-grade CM5 series S sensor chip using amine coupling in acetate buffer. Murine or recombinant chimeric murine-human mAbs (mouse VH/VL; human constant regions) were captured, then recombinant human or cyno AXL ECD was flowed over the surface at different concentration ranges (0.1-500 nM) depending on the antibody. The running buffer was PBS/Tween-20 and the flow rate 100 uL/min. All binding studies were performed at 25° C. Surfaces were regenerated using 10 mM glycine, pH 1.5.
On the technique in general: In SPR one partner is held on a chip, and binding of the other changes the refractive index at the surface.

In assay [2] the target is T2, recombinant cynomolgus AXL extracellular domain (cynomolgus).
T2 construct: range 1-449; also called Cyno AXL; cyno AXL ECD
The assay is described as above. As for the experimental part: as §1

For assay [3], the target named is T3, human AXL expressed on the cell surface of tumor cell lines (human, UniProt P30530 26-894).
T3 construct: whole, on cells; also called cell surface-expressed AXL; cell-based AXL
T3 sequence (looked up): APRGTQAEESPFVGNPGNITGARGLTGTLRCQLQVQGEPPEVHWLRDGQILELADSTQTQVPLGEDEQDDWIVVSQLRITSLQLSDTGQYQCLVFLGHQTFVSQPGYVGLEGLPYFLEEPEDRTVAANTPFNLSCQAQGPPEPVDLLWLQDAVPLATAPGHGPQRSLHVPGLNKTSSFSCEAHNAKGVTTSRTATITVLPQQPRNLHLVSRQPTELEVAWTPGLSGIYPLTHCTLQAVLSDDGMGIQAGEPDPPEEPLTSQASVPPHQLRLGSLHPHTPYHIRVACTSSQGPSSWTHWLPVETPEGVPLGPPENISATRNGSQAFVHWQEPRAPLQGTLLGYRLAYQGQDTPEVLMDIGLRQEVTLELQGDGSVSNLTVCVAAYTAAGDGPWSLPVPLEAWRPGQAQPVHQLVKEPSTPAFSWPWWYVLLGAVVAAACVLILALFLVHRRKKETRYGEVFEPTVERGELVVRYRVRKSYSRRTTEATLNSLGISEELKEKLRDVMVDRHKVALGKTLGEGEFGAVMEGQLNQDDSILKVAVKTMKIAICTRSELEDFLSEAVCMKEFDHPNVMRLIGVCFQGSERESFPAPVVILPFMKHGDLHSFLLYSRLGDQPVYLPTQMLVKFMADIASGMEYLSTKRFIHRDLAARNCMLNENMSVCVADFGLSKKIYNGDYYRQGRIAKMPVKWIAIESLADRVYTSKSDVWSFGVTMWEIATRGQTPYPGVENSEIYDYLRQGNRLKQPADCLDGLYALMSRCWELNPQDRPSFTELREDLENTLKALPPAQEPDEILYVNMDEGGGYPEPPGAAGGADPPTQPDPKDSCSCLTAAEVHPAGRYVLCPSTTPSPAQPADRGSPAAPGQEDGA
Put plainly: FACS on SKOV3 cells, apparent Kd, human Fc format. The protocol: (§2) FACS binding assay. Adherent cells were dissociated with non-enzymatic Sigma Cell Dissociation Solution (Cat. No. C5789). Cells suspensions were added to polypropylene, V-bottom 96-well plates and incubated for 2 hours on ice with primary antibodies at concentrations ranging from 100 nM to 0.001 nM or at a single dose of 100 nM (for the non-specific control). After incubation and washes, cells were incubated with fluorescently labeled secondary antibody (Alexa Fluor® 488 anti-human IgG from Jackson Cat. No 709-546-098) for 1 hour on ice, then washed. Cell viability was determined using Fixable viability dye 450 (20 min on ice). Stained cells were fixed in 1% formaldehyde at 4° C. and stored at 4° C. until acquisition which was performed the next day.
(§3) Binding of recombinant chimeric Abs to three cell lines was assessed by FACS as described above. The apparent Bmax and Kd determination is shown below in Table 14.

The target of assay [4] is T3, human AXL expressed on the cell surface …. Put plainly: FACS on NCI-H292 cells, apparent Kd, human Fc format. As for the experimental part: as §2, §3
Assay [5] deals with T1, recombinant human AXL extracellular …. Put plainly: SPR, VHH-Fc captured, AXL ECD flowed, single-concentration kinetics (estimate). The protocol:
(§4) For VH Hs and VHH-Fcs, binding to human and cynomolgus AXL ECD was assessed using either a Biacore T200 instrument or a Biacore 3000 instrument. Either human AXL ECD or anti-human Fc antibody was immobilized on a research-grade CM5 series S sensor chip (T200, rhAXL ECD) or a C1 sensor chip (3000, anti-human Fc) using amine coupling in acetate buffer. VHH-Fcs were captured on anti-human Fc surfaces. Either monomeric VHHs (for rhAXL ECD surfaces) or human and cyno AXL ECD (for VHH-Fc surfaces) were flowed over the surfaces at different concentration ranges. Running buffers were HBS-EP (3000) and HBS-EP+(T200). Flow rates were 10-40 ul/min. All binding studies were performed at 25° C. Surfaces were regenerated using 10 mM glycine, pH 1.5.

Assay [6] concerns the target T2, recombinant cynomolgus AXL …. Described as above. As for the experimental part:
as §4

A word on the koff: it is the first-order rate constant of dissociation. For orientation: kon means a measure of how fast the partners come together.

B1: hFC-F107-10G1 (antibody, human IgG1, kappa, V domains shown)
VH: EVNLVESGGGVVKPGASLKLSCEASGFTFSNYGMSWVRQTSDKRLEWVASISGGGGRTYYLDNVKGRFIISRENAKNTLYLQMSSLKSEDTALFYCARGARASYFAMDYWGQGSSVTVSS
VL: VIVMTQSHKFMSTSVGDRVSITCKASQDVTTAVAWYQQKPGQSPKLLIYWASTRHTGVPDRFTGSGSGTDYSLTISNVQTEDLAFYYCQQHFTTPLTFGAGTKLELKR
notes: Chimeric mAb, human IgG1 / human kappa constant regions; also called mAb F107-10G1
As for B1, in assay [1], the Kd turned out to be 0.4 nM, the koff worked out at 0.00056 s⁻¹ and the kon was found to be 1.2e+06 M⁻¹ s⁻¹. In assay [2], the Kd came out at 0.2 nM, the koff worked out at 0.00023 s⁻¹ and the kon turned out to be 1.8e+06 M⁻¹ s⁻¹.

B2: NRC-sdAb001-Fc (VHH-human IgG1 Fc fusion) (Fc fusion)
chain: QVKLEESGGGLVQAGGSLRLSCTASASISSFDIMGWYRQAPGKQRELVAAITTLDIANYRDSVKGRFTISRDNAKNTVYLQMDSLKPEDTARYHCAAFQSDQNYWGQGTQVTVSS
notes: VHH fused N-terminally to human IgG1 Fc, made in HEK293 cells; also called NRC-sdAb0001-Fc; NRC-sdAb001-hIgG1; not shown: human IgG1 Fc
On to B2, for which the Kd is 0.112 nM in assay [3], 0.105 nM in assay [4], 6 nM in assay [5] and 8 nM in assay [6]. The koff in assay [5] and in assay [6] was 0.0072 s⁻¹ in each case. Besides, the results for the kon in assay [5] and in assay [6] were 1.3e+06 M⁻¹ s⁻¹ and 920000 M⁻¹ s⁻¹, respectively.

The values are drawn from patent publication US20240076389A1 (NATIONAL RESEARCH COUNCIL OF CANADA, published 2024).
